Laboratory results taken from the Immune Epitope Database (IEDB).

What was measured:
HLA-B*15:01 [1] = test: IEDB peptide-MHC binding, purified MHC/competitive/radioactivity; filed as Kd, often an IC50 or EC50 that approximates it; ≥ and ≤ were set here for values at or beyond the usual limits of such assays
HLA-A*23:01 = test: as above
HLA-A*24:02 = test: as above
HLA-A*68:01 = test: as above
HLA-A*31:01 = test: as above; conditions: source organism: Mammarenavirus brazilense
HLA-A*03:01 = test: as above; conditions: source organism: Mammarenavirus brazilense
HLA-A*30:01 = test: as above
HLA-A*33:01 = test: as above; conditions: source organism: Mammarenavirus brazilense
HLA-B*35:01 = test: as above
HLA-B*44:03 = test: as above
HLA-B*40:01 [2] = test: as above
HLA-B*51:01 = test: as above
HLA-A*01:01 = test: as above
HLA-A*30:02 = test: as above
HLA-A*24:03 = test: IEDB peptide-MHC binding, purified MHC/direct/fluorescence; filed as Kd, often an IC50 or EC50 that approximates it; ≥ and ≤ were set here for values at or beyond the usual limits of such assays; conditions: source organism: Mammarenavirus lassaense
HLA-B*40:01 [3] = test: as above; conditions: source organism: Francisella tularensis subsp. holarctica LVS
HLA-B*18:01 = test: as above; conditions: source organism: Francisella tularensis subsp. holarctica LVS
HLA-B*07:02 = test: IEDB peptide-MHC binding, purified MHC/competitive/radioactivity; filed as Kd, often an IC50 or EC50 that approximates it; ≥ and ≤ were set here for values at or beyond the usual limits of such assays
HLA-A*29:02 = test: as above; conditions: source organism: Mammarenavirus machupoense
HLA-A*26:01 = test: as above; conditions: source organism: Mammarenavirus machupoense
HLA-A*32:01 = test: as above
HLA-B*53:01 = test: as above
HLA-B*44:02 = test: as above
HLA-B*15:01 [4] = test: IEDB peptide-MHC binding, purified MHC/direct/fluorescence; filed as Kd, often an IC50 or EC50 that approximates it; ≥ and ≤ were set here for values at or beyond the usual limits of such assays; conditions: source organism: Mammarenavirus lassaense
HLA-B*46:01 = test: as above; conditions: source organism: Mammarenavirus lassaense
[5] = source organism: Vaccinia virus Copenhagen
[6] = source organism: Dengue virus 2 Jamaica/1409/1983
[7] = source organism: Mammarenavirus brazilense
[8] = source organism: Dengue virus 3 Martinique/1243/1999
[9] = source organism: Dengue virus 1 Brazil/97-11/1997
[10] = source organism: Vaccinia virus WR
[11] = source organism: Dengue virus 4 Philippines/H241/1956
[12] = source organism: Mammarenavirus machupoense
[13] = source organism: Dengue virus 3 Sri Lanka/1266/2000

ISKTSIACF gave a Kd (HLA-B*15:01 [1]; [5]) of 10800 nM.
Work on IQKETLVTF yielded a Kd (HLA-B*15:01 [1]; [6]) of 1.61 nM, a Kd (HLA-A*23:01; [6]) of 40.5 nM and a Kd (HLA-A*24:02; [6]) of 1560 nM.
STYYVHENK showed a Kd (HLA-A*68:01; [7]) of 13 nM, a Kd (HLA-A*31:01) of 57.3 nM and a Kd (HLA-A*03:01) of 5.16 nM. It also gave a Kd (HLA-A*30:01; [7]) of 3320 nM and a Kd (HLA-A*33:01) of 454 nM.
LPVWLAHKVA was tested, and the Kd (HLA-B*35:01; [8]) was 6680 nM.
In the case of LEFFLIVLL, the Kd (HLA-B*44:03; [6]) is reported as 17600 nM and the Kd (HLA-B*40:01 [2]; [6]) is reported as 123 nM.
LRHPGFTVI gave a Kd (HLA-B*51:01; [9]) of no less than 10000 nM.
RIIPKNNHA was tested, and the Kd (HLA-B*15:01 [1]; [10]) was 444 nM.
FTTRHRKPTY was tested, and the Kd (HLA-A*30:01; [11]) was 1960 nM and the Kd (HLA-A*01:01; [11]) was no less than 23600 nM.
Work on KYRYGTFLY yielded a Kd (HLA-A*30:01; [10]) of 1.07 nM.
Sequence MAVFKMSPGY has a Kd (HLA-A*30:02; [11]) of 501 nM and a Kd (HLA-B*35:01; [11]) of 667 nM.
LARWGTFKK was tested, and the Kd (HLA-A*30:01; [8]) was 316 nM.
RYPIDPFLL gave a Kd (HLA-A*24:03) of 5.6 nM.
Sequence MERFNCSSF has a Kd (HLA-B*15:01 [1]; [5]) of 1.62 nM.
With GAIDLCRHF the Kd (HLA-B*15:01 [1]; [10]) was 117 nM.
For VEIGLGMPF, the Kd (HLA-B*40:01 [3]) was 16.8 nM and the Kd (HLA-B*18:01) was no more than 1 nM.
Work on RQRTPQDNQL yielded a Kd (HLA-B*15:01 [1]; [9]) of 112 nM.
RQEKGKSLLF gave a Kd (HLA-B*15:01 [1]; [6]) of 42.3 nM.
For RGRIGRNPK, the Kd (HLA-A*30:01; [6]) was 18.7 nM.
In the case of SPAATQKAAL, the Kd (HLA-B*07:02; source organism: Dengue virus 4 Singapore/8976/1995) is reported as 3.66 nM.
FTMRLLSPVR was tested, and the Kd (HLA-A*68:01; [6]) was 7.73 nM and the Kd (HLA-A*30:01; [6]) was 9070 nM.
In the case of CTNFKTQLV, the Kd (HLA-A*29:02) is reported as 4460 nM, the Kd (HLA-A*26:01) is reported as 13200 nM and the Kd (HLA-A*30:02; [12]) is reported as 2290 nM. The Kd (HLA-A*23:01; [12]) was no less than 77700 nM, the Kd (HLA-A*24:02; [12]) was no less than 77500 nM and the Kd (HLA-A*30:01; [12]) was 1040 nM. For the same sequence, the Kd (HLA-A*32:01; [12]) was no less than 77800 nM and the Kd (HLA-A*01:01; [12]) was 1150 nM.
REIPERSWNT gave a Kd (HLA-B*40:01 [2]; [11]) of 1480 nM.
VEDERFWDL was tested, and the Kd (HLA-B*40:01 [2]; [9]) was 155 nM.
Sequence RMAILGDTAW has a Kd (HLA-B*53:01; [6]) of 21.4 nM, a Kd (HLA-B*44:02; [6]) of 451 nM and a Kd (HLA-B*15:01 [1]; [6]) of 233 nM.
Sequence IMGIPYCNY has a Kd (HLA-B*15:01 [4]) of 43 nM and a Kd (HLA-B*46:01) of no less than 20000 nM.
Sequence MTRDPLYIY has a Kd (HLA-A*30:01; [10]) of 16.9 nM.
In the case of TPNLAERVL, the Kd (HLA-B*07:02; source organism: Dengue virus 1 Singapore/S275/1990) is reported as 114 nM.
With MILPAALAF the Kd (HLA-B*35:01; [13]) was 394 nM, the Kd (HLA-B*15:01 [1]; [13]) was 6.87 nM and the Kd (HLA-A*32:01; [13]) was 29.5 nM.
GESSPSPTV was tested, and the Kd (HLA-B*44:02; [8]) was 744 nM and the Kd (HLA-B*40:01 [2]; [8]) was 9.6 nM.
Work on IIKSSYVFK yielded a Kd (HLA-A*30:01; [10]) of 10.9 nM.
With PPFGDSYII the Kd (HLA-B*53:01; [6]) was 1740 nM and the Kd (HLA-B*51:01; [6]) was 9780 nM.
LETLMLVAL showed a Kd (HLA-B*44:02; [11]) of 1100 nM and a Kd (HLA-B*40:01 [2]; [11]) of 3.49 nM.
SPGYVLGIFL gave a Kd (HLA-B*07:02; [11]) of 116 nM.
RLKGESRKTF gave a Kd (HLA-B*15:01 [1]; [8]) of 300 nM.
Work on YKELCDAVY yielded a Kd (HLA-A*29:02) of 3200 nM, a Kd (HLA-A*26:01) of no less than 77900 nM and a Kd (HLA-A*30:02; [12]) of 1420 nM. It also gave a Kd (HLA-A*23:01; [12]) of no less than 40500 nM, a Kd (HLA-A*24:02; [12]) of no less than 77500 nM and a Kd (HLA-A*30:01; [12]) of no less than 54300 nM. It also gave a Kd (HLA-A*32:01; [12]) of no less than 77800 nM and a Kd (HLA-A*01:01; [12]) of 4060 nM.
For YAQMWSLMYF, the Kd (HLA-B*53:01; [8]) was 106 nM, the Kd (HLA-B*51:01; [8]) was 12900 nM and the Kd (HLA-B*15:01 [1]; [8]) was 9.91 nM. For the same sequence, the Kd (HLA-A*23:01; [8]) was 594 nM and the Kd (HLA-A*24:02; [8]) was 247 nM.
Work on KAYLYTEYF yielded a Kd (HLA-B*15:01 [1]; [10]) of 7.64 nM.
With AETQHGTVL the Kd (HLA-B*44:03; [9]) was 52.7 nM and the Kd (HLA-B*40:01 [2]; [9]) was 0.32 nM.
Work on TTTDSRCPTQ yielded a Kd (HLA-A*30:01; [9]) of no less than 51200 nM.
In the case of RAKRGTAQI, the Kd (HLA-A*30:01; [9]) is reported as 137 nM.
With FSHDHIGHG the Kd (HLA-B*15:01 [1]; [10]) was 31.9 nM.
KEISSMLNI gave a Kd (HLA-B*44:03; [9]) of 76.6 nM, a Kd (HLA-B*44:02; [9]) of 38.9 nM and a Kd (HLA-B*40:01 [2]; [9]) of 262 nM.
